B1: 14-3-3 protein sigma (Homo sapiens), P31947 (parent)
chain: MERASLIQKAKLAEQAERYEDMAAFMKGAVEKGEELSCEERNLLSVAYKNVVGGQRAAWRVLSSIEQKSNEEGSEEKGPEVREYREKVETELQGVCDTVLGLLDSHLIKEAGDAESRVFYLKMKGDYYRYLAEVATGDDKKRIIDSARSAYQEAMDISKKEMPPTNPIRLGLALNFSVFHYEIANSPEEAISLAKTTFDEAMADLHTLSEDSYKDSTLIMQLLRDNLTLWTADNAGEEGGEAPQEPQS
partner: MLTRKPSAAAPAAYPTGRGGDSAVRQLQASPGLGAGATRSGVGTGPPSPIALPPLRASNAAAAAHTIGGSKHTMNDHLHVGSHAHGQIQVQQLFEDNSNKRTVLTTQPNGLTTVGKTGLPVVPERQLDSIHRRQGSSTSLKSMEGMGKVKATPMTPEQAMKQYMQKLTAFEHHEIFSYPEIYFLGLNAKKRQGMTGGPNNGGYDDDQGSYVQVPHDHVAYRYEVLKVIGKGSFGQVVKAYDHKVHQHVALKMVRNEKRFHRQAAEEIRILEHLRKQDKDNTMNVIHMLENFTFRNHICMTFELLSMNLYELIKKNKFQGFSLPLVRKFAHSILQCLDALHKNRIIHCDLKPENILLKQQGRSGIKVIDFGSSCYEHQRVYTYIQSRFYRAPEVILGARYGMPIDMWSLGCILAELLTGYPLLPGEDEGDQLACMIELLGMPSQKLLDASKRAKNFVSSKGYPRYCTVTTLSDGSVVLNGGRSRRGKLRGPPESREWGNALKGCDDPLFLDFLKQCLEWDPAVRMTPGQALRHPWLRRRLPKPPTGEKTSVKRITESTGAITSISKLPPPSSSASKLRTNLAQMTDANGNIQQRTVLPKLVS
B2: 14-3-3 protein sigma (Homo sapiens), P31947 (parent)
chain: B1 chain
partner: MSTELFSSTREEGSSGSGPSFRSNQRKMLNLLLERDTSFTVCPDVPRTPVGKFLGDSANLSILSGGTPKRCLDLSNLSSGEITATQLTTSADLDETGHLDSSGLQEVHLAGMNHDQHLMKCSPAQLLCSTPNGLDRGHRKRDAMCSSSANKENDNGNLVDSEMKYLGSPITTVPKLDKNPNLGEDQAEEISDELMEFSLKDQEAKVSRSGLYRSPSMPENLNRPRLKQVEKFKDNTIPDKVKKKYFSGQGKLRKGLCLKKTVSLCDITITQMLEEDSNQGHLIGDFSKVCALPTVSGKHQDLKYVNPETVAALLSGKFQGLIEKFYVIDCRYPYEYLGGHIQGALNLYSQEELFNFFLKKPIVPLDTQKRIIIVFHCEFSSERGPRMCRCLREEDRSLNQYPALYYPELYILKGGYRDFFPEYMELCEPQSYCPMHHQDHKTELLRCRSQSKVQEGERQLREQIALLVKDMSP
B3: 14-3-3 protein sigma (Homo sapiens), P31947 (parent)
chain: B1 chain
partner: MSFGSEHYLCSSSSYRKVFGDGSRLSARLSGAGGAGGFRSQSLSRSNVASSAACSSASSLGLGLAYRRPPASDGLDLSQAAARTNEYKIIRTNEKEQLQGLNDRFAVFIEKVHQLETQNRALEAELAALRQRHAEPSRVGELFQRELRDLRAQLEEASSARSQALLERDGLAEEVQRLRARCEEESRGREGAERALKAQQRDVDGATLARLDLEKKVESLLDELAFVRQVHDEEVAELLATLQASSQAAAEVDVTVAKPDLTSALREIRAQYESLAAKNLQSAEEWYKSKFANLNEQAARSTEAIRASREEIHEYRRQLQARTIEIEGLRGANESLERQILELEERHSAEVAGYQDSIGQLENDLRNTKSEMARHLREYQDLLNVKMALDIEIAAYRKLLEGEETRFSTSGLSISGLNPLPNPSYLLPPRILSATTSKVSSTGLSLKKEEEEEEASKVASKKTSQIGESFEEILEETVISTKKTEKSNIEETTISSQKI
B4: Kinesin light chain 3 (Homo sapiens), Q6P597 (parent)
chain: MSVQVAAPGSAGLGPERLSPEELVRQTRQVVQGLEALRAEHHGLAGHLAEALAGQGPAAGLEMLEEKQQVVSHSLEAIELGLGEAQVLLALSAHVGALEAEKQRLRSQARRLAQENVWLREELEETQRRLRASEESVAQLEEEKRHLEFLGQLRQYDPPAESQQSESPPRRDSLASLFPSEEEERKGPEAAGAAAAQQGGYEIPARLRTLHNLVIQYAGQGRYEVAVPLCRQALEDLERSSGHCHPDVATMLNILALVYRDQNKYKEATDLLHDALQIREQTLGPEHPAVAATLNNLAVLYGKRGRYREAEPLCQRALEIREKVLGADHPDVAKQLNNLALLCQNQGKFEDVERHYARALSIYEALGGPHDPNVAKTKNNLASAYLKQNKYQQAEELYKEILHKEDLPAPLGAPNTGTAGDAEQALRRSSSLSKIRESIRRGSEKLVSRLRGEAAAGAAGMKRAMSLNTLNVDAPRAPGTQFPSWHLDKAPRTLSASTQDLSPH
partner: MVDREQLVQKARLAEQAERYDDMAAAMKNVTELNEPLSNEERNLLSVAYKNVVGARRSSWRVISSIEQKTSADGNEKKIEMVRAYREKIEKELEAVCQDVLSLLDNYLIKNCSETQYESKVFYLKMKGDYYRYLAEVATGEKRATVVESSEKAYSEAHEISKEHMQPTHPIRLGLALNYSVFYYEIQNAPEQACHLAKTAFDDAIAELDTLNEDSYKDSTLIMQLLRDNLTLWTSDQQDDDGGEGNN
B5: 14-3-3 protein sigma (Homo sapiens), P31947 (parent)
chain: B1 chain
partner: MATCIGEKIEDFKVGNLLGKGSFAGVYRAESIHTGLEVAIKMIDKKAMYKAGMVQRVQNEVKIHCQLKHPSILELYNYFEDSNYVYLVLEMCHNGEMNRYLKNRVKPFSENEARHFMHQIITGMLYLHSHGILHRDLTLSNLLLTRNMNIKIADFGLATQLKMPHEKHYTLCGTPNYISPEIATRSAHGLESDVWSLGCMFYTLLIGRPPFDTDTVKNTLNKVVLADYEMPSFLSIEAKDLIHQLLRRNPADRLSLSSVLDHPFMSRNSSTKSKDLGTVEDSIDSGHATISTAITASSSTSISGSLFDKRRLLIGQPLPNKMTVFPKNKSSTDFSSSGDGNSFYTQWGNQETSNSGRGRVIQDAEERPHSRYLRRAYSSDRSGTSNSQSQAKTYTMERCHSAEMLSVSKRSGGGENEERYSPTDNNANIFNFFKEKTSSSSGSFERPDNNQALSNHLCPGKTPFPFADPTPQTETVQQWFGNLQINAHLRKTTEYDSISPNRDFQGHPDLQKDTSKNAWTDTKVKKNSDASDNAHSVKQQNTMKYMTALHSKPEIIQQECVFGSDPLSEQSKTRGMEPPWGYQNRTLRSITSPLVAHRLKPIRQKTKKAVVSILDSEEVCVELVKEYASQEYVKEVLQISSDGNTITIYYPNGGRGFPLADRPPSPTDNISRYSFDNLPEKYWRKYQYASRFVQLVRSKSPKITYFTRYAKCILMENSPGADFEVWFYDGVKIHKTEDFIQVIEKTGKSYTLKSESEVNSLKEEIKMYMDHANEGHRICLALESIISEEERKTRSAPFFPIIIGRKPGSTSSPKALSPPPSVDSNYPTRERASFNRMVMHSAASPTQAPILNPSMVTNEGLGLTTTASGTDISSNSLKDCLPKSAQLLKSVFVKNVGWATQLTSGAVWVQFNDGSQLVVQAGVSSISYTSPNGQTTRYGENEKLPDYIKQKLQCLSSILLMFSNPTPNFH
B6: 14-3-3 protein sigma (Homo sapiens), P31947 (parent)
chain: B1 chain
partner: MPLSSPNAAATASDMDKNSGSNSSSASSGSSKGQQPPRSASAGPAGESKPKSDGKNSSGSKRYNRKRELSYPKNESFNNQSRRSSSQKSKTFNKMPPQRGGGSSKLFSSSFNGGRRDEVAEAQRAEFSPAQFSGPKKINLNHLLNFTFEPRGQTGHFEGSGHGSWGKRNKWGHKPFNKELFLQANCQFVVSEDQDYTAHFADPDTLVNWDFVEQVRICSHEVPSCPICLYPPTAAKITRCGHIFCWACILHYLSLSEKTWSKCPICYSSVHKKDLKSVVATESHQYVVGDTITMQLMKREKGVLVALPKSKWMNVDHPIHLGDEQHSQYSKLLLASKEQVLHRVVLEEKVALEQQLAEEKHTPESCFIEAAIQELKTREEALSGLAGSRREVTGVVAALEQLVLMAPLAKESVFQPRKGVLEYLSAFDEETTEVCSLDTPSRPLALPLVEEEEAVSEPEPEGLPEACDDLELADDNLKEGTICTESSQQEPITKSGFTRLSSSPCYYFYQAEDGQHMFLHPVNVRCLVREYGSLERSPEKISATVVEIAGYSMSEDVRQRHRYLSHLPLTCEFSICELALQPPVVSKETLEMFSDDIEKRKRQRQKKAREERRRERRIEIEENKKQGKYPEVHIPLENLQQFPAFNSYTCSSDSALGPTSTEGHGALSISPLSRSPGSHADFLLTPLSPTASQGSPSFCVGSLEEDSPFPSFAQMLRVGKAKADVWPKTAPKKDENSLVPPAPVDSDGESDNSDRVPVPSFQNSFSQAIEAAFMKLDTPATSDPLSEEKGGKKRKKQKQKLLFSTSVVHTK
B7: 14-3-3 protein sigma (Homo sapiens), P31947 (parent)
chain: B1 chain
partner: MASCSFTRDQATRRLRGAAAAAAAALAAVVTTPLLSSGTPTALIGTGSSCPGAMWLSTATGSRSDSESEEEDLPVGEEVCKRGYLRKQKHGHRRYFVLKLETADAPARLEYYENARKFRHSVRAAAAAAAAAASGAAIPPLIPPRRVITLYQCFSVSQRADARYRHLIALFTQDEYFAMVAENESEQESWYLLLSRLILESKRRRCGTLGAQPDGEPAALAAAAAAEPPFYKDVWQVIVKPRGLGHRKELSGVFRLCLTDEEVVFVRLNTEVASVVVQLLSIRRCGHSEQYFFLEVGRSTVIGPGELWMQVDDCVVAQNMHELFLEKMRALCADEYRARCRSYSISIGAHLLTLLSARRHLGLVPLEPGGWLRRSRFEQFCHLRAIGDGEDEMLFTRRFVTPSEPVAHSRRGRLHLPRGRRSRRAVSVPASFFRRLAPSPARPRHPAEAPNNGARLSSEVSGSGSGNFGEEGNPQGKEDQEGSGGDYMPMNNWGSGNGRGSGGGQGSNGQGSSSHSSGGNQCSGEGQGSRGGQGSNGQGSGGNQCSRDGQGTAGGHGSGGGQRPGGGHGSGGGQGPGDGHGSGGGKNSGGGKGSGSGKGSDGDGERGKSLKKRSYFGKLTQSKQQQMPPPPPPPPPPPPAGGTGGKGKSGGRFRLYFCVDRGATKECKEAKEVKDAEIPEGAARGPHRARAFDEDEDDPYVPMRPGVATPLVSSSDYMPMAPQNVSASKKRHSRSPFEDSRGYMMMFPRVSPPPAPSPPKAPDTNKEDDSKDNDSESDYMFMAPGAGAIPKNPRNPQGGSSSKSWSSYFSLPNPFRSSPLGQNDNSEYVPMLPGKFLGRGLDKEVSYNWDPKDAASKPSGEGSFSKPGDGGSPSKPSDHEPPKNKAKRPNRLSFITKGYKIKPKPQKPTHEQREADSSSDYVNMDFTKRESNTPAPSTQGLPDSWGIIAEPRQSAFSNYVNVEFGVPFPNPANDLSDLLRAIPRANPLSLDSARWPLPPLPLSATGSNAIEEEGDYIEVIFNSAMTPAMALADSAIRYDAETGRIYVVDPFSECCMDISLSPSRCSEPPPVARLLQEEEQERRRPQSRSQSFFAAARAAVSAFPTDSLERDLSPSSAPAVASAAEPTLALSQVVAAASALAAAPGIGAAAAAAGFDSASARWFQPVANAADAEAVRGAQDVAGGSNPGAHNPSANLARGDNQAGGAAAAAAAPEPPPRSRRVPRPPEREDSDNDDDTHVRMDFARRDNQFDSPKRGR

Variants of: B1
Conditions: with dyrk2_human DYRK2, Q92630

| effect of a mutation on the interaction | Variant |
| --- | --- |
| decreasing interaction strength | K49E;R56E;V178D |

Variants of: B2
Conditions: with mpip3_human CDC25C

| effect of a mutation on the interaction | Variant |
| --- | --- |
| decreasing interaction strength | K49E;R56E;V178D |

Variants of: B3
Conditions: with ainx_human INA

| effect of a mutation on the interaction | Variant |
| --- | --- |
| decreasing interaction strength | K49E;R56E;V178D |

Variants of: B4
Conditions: with 1433g_human YWHAG

| effect of a mutation on the interaction | Variant |
| --- | --- |
| disrupting interaction strength | S431A;S466A;S497A |

Variants of: B5
Conditions: with plk4_human PLK4, O00444

| effect of a mutation on the interaction | Variant |
| --- | --- |
| decreasing interaction strength | K49E;R56E;V178D |

Variants of: B6
Conditions: with rnf10_human RNF10, Q8N5U6

| effect of a mutation on the interaction | Variant |
| --- | --- |
| decreasing interaction strength | K49E;R56E;V178D |

Variants of: B7
Conditions: with irs4_human IRS4, O14654

| effect of a mutation on the interaction | Variant |
| --- | --- |
| decreasing interaction strength | K49E;R56E;V178D |

Source: IntAct's records for PubMed 36931259
